Results published in US20040005691.
Where “and” joins values, the source holds several entries; their conditions need not be identical. Equal values may be shown once.

T1: substrate S-1 (SEISY-EVEFRWKK)
T1 chain: SEISYEVEFRWKK


Biological target: T1, substrate S-1 (SEISY-EVEFRWKK)

| Protein | Activity Assays (Fluorescence Peak Area) (fluorescence peak area) | enzyme activity compared with BACE |
| --- | --- | --- |
| P33K-BACE expressed in E. coli from the pET11a-P33K-BACE construct (protein) MASMTGGQQMGRGSMAGVLPAHGTQHGIRLPLRSGLGGAPLGLRLPRETDEEPEEKGRRGSFVEMVDNLRGKSGQGYYVEMTVGSPPQTLNILVDTGSSNFAVGAAPHPFLHRYYQRQLSSTYRDLRKGVYVPYTQGKWEGELGTDLVSIPHGPNVTVRANIAAITESDKFFINGSNWEGILGLAYAEIARPDDSLEPFFDSLVKQTHVPNLFSLQLCGAGFPLNQSEVLASVGGSMIIGGIDHSLYTGSLWYTPIRREWYYEVIIVRVEINGQDLKMDCKEYNYDKSIVDSGTTNLRLPKKVFEAAVKSIKAASSTEKFPDGFWLGEQLVCWQAGTTPWNIFPVISLYLMGEVTNQSFRITILPQQYLRPVEDVATSQDDCYKFAISQSSTGTVMGAVIMEGFYVVFDRARKRIGFAVSACHVHDEFRTAAVEGPFVTLDMEDCGYNIPQTDES | 38.4 and 26.5 and 32.8 | the P33K-BACE has essentially the same activity of BACE |
| human BACE expressed in E. coli from pET11a-BACE, without the P33K mutation (protein) MASMTGGQQMGRGSMAGVLPAHGTQHGIRLPLRSGLGGAPLGLRLPRETDEEPEEPGRRGSFVEMVDNLRGKSGQGYYVEMTVGSPPQTLNILVDTGSSNFAVGAAPHPFLHRYYQRQLSSTYRDLRKGVYVPYTQGKWEGELGTDLVSIPHGPNVTVRANIAAITESDKFFINGSNWEGILGLAYAEIARPDDSLEPFFDSLVKQTHVPNLFSLQLCGAGFPLNQSEVLASVGGSMIIGGIDHSLYTGSLWYTPIRREWYYEVIIVRVEINGQDLKMDCKEYNYDKSIVDSGTTNLRLPKKVFEAAVKSIKAASSTEKFPDGFWLGEQLVCWQAGTTPWNIFPVISLYLMGEVTNQSFRITILPQQYLRPVEDVATSQDDCYKFAISQSSTGTVMGAVIMEGFYVVFDRARKRIGFAVSACHVHDEFRTAAVEGPFVTLDMEDCGYNIPQTDES | 31 and 45.8 and 31.9 |  |
| BACE construct Asp2-2L-TM-His6 expressed in CHO cells (protein) TQHGIRLPLRSGLGGAPLGLRLPRETDEEPEEPGRRGSFVEMVDNLRGKSGQGYYVEMTVGSPPQTLNILVDTGSSNFAVGAAPHPFLHRYYQRQLSSTYRDLRKGVYVPYTQGKWEGELGTDLVSIPHGPNVTVRANIAAITESDKFFINGSNWEGILGLAYAEIARPDDSLEPFFDSLVKQTHVPNLFSLQLCGAGFPLNQSEVLASVGGSMIIGGIDHSLYTGSLWYTPIRREWYYEVIIVRVEINGQDLKMDCKEYNYDKSIVDSGTTNLRLPKKVFEAAVKSIKAASSTEKFPDGFWLGEQLVCWQAGTTPWNIFPVISLYLMGEVTNQSFRITILPQQYLRPVEDVATSQDDCYKFAISQSSTGTVMGAVIMEGFYVVFDRARKRIGFAVSACHVHDEFRTAAVEGPFVTLDMEDCGYNIPQTDESHHHHHH | 83.3 and 85.2 and 78.1 |  |
